In publication PMC5973619:

Biological target: T1, Sun2 (human (endogenous in HeLa and RPE-1)), Q9UH99
T1 chain: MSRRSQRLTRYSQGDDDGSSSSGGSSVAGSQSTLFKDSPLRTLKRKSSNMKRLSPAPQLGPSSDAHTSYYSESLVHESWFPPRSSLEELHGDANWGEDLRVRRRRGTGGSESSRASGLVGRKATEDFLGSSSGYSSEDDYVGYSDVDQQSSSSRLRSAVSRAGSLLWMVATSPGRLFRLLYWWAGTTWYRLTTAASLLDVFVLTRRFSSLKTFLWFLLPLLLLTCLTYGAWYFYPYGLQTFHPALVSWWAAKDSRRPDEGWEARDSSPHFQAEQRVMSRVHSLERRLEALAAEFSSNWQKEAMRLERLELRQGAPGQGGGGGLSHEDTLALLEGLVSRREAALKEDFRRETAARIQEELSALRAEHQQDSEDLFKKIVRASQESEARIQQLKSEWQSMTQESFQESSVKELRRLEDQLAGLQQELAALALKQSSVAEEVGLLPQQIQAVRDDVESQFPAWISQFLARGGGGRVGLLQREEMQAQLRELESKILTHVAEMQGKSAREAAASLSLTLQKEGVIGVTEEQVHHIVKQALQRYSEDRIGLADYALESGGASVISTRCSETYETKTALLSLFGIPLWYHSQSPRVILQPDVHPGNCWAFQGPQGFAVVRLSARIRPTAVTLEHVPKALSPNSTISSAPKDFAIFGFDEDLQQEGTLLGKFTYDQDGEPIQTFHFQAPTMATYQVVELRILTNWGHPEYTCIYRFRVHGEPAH
Assay: cross-linking; HeLa cells in PBS containing .5% formaldehyde for 10min room temperature before lysis; reducing SDS-PAGE and blot for Sun1 and Sun2
Details: remark: other sources report otherwise

- stoichiometry N: 3
B1: Sun2, Q9UH99 1-717 (natural protein)
chain: MSRRSQRLTRYSQGDDDGSSSSGGSSVAGSQSTLFKDSPLRTLKRKSSNMKRLSPAPQLGPSSDAHTSYYSESLVHESWFPPRSSLEELHGDANWGEDLRVRRRRGTGGSESSRASGLVGRKATEDFLGSSSGYSSEDDYVGYSDVDQQSSSSRLRSAVSRAGSLLWMVATSPGRLFRLLYWWAGTTWYRLTTAASLLDVFVLTRRFSSLKTFLWFLLPLLLLTCLTYGAWYFYPYGLQTFHPALVSWWAAKDSRRPDEGWEARDSSPHFQAEQRVMSRVHSLERRLEALAAEFSSNWQKEAMRLERLELRQGAPGQGGGGGLSHEDTLALLEGLVSRREAALKEDFRRETAARIQEELSALRAEHQQDSEDLFKKIVRASQESEARIQQLKSEWQSMTQESFQESSVKELRRLEDQLAGLQQELAALALKQSSVAEEVGLLPQQIQAVRDDVESQFPAWISQFLARGGGGRVGLLQREEMQAQLRELESKILTHVAEMQGKSAREAAASLSLTLQKEGVIGVTEEQVHHIVKQALQRYSEDRIGLADYALESGGASVISTRCSETYETKTALLSLFGIPLWYHSQSPRVILQPDVHPGNCWAFQGPQGFAVVRLSARIRPTAVTLEHVPKALSPNSTISSAPKDFAIFGFDEDLQQEGTLLGKFTYDQDGEPIQTFHFQAPTMATYQVVELRILTNWGHPEYTCIYRFRVHGEPAH
